Results from paper PMC9482650, “Quantitative fragmentomics allow affinity mapping of interactomes” (Nature Communications, 2022).

T1: ARHGAP21, Q5T5U3
T1 sequence (Q5T5U3 45-169, limits assumed, looked up): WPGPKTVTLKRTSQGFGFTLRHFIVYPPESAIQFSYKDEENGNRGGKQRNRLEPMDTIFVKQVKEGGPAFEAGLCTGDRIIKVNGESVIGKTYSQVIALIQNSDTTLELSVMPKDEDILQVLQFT

T2: MPDZ_10, O75970
T2 sequence (O75970 1624-1722, limits assumed, looked up): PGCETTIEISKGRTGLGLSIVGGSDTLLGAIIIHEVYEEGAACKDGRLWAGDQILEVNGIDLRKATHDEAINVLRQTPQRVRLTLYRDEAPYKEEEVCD

T3: ARHGEF11, O15085
T3 sequence (O15085 42-136, limits assumed, looked up): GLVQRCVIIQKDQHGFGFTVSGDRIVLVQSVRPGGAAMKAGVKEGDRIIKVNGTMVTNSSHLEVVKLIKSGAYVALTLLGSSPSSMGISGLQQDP

T4: SNTB1, Q13884
T4 sequence (Q13884 107-205, limits assumed, looked up): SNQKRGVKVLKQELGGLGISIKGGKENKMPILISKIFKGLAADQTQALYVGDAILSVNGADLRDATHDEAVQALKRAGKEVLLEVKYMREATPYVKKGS

T5: PCLO, Q9Y6V0
T5 sequence (Q9Y6V0 4491-4600, limits assumed, looked up): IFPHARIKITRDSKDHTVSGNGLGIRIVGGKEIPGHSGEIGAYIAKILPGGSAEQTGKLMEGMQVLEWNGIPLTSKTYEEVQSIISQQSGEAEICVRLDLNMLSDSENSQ

T6: DFNB31_3, Q9P202
T6 sequence (Q9P202 811-907, limits assumed, looked up): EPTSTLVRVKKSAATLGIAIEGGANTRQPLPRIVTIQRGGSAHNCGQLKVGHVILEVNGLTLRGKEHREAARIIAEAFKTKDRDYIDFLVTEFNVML

T7: LNX2_3, Q8N448
T7 sequence (Q8N448 463-564, limits assumed, looked up): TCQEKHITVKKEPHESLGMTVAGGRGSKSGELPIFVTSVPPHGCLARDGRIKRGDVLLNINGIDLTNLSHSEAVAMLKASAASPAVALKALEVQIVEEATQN

T8: GRIP1_2, Q9Y3R0
T8 sequence (Q9Y3R0 145-248, limits assumed, looked up): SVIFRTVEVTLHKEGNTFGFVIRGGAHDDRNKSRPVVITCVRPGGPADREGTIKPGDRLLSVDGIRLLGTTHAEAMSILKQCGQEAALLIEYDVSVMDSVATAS

T9: GRIP1_7, Q9Y3R0
T9 sequence (Q9Y3R0 999-1096, limits assumed, looked up): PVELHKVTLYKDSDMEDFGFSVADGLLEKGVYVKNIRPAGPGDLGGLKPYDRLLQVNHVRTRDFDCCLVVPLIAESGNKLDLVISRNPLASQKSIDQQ

T10: NHERF3_4, Q5T2W1
T10 sequence (Q5T2W1 373-468, limits assumed, looked up): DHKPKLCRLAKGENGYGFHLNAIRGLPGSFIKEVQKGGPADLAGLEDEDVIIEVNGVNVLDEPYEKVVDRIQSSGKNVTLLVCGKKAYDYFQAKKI

T11: SIPA1L2, Q9P2F8
T11 sequence (Q9P2F8 945-1036, limits assumed, looked up): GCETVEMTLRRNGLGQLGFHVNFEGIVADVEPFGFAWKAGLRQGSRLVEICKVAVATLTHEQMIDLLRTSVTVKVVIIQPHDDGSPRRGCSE

T12: MPDZ_12, O75970
T12 sequence (O75970 1857-1958, limits assumed, looked up): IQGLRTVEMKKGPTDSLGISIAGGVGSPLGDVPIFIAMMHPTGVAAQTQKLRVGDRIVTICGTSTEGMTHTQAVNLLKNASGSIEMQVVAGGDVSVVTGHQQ

T13: PARD3B_1, Q8TEW8
T13 sequence (Q8TEW8 196-299, limits assumed, looked up): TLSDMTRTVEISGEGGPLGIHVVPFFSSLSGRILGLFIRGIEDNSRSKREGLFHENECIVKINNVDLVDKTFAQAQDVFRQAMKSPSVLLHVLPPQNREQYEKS


Tests used:
Assay in all cases: holdup assay
Design in all cases: key: below the threshold = too weak to quantify, mostly under pKd 3.1 to 4
Conditions in all cases: plain residues with an end cap or a label only (N-terminal biotin on a linker: ado-ado)
[1] = target: LAP2, Q96RT1
LAP2, Q96RT1, sequence (Q96RT1 other isoform, or with tags, fused parts or gaps): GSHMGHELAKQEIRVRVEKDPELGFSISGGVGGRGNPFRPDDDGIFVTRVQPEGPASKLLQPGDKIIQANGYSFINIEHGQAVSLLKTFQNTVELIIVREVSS

[2] = target: T1, ARHGAP21, Q5T5U3
[3] = target: T2, MPDZ_10, O75970
[4] = target: T3, ARHGEF11, O15085
[5] = target: T4, SNTB1, Q13884
[6] = target: T5, PCLO, Q9Y6V0
[7] = target: MAGI2_6, Q86UL8
MAGI2_6, Q86UL8, sequence (Q86UL8 1141-1229): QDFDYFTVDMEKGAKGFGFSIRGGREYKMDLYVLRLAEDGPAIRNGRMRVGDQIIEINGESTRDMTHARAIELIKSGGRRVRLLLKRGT

[8] = target: GRIP2_5, Q9C0E4
GRIP2_5, Q9C0E4, sequence (Q9C0E4 544-642): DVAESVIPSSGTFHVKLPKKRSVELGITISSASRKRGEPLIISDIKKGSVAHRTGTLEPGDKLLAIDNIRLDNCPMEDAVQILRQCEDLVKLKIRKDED

[9] = target: T6, DFNB31_3, Q9P202
[10] = target: MAGI2_3, Q86UL8
MAGI2_3, Q86UL8, sequence (Q86UL8 600-682): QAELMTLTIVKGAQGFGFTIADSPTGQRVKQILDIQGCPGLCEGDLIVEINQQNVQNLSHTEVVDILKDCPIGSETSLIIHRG

[11] = target: T7, LNX2_3, Q8N448
[12] = target: T8, GRIP1_2, Q9Y3R0
[13] = target: DLG4_2, P78352
DLG4_2, P78352, sequence (P78352 155-259): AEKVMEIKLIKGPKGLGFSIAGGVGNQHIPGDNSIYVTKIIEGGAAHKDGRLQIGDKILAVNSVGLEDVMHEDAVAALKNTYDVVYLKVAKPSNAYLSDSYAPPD

[14] = target: T9, GRIP1_7, Q9Y3R0
[15] = target: T10, NHERF3_4, Q5T2W1
[16] = target: FRMPD2_1, Q68DX3
FRMPD2_1, Q68DX3, sequence (Q68DX3 770-861): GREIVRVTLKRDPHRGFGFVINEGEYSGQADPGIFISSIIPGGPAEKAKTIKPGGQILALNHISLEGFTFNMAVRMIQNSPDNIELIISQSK

[17] = target: T11, SIPA1L2, Q9P2F8
[18] = target: T12, MPDZ_12, O75970
[19] = target: MAST1, Q9Y2H9
MAST1, Q9Y2H9, sequence (Q9Y2H9 962-1065): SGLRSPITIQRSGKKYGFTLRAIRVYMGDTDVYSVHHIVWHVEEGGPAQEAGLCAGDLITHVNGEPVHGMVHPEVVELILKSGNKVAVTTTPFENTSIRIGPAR

[20] = target: Inadl_3, Q8NI35
Inadl_3, Q8NI35, sequence (Q8NI35 359-469): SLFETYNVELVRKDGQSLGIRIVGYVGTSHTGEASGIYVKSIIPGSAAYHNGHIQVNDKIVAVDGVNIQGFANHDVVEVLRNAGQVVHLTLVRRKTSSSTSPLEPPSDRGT

[21] = target: IL16_3, Q14005
IL16_3, Q14005, sequence (Q14005 1107-1207): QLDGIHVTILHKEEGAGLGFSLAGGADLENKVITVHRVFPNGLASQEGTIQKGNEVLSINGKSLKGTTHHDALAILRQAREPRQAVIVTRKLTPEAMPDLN

[22] = target: IL16_4, Q14005
IL16_4, Q14005, sequence (Q14005 1229-1329): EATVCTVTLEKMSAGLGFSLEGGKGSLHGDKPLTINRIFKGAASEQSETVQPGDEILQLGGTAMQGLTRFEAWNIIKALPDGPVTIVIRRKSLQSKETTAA

[23] = target: LNX1_3, Q8TBB1
LNX1_3, Q8TBB1, sequence (Q8TBB1 500-596): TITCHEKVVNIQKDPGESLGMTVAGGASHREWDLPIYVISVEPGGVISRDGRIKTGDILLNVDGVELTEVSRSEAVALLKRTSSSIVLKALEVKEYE

[24] = target: T13, PARD3B_1, Q8TEW8

| Binder | pKd [1] | pKd [2] | pKd [3] | pKd [4] | pKd [5] | pKd [6] | pKd [7] | pKd [8] | pKd [9] | pKd [10] | pKd [11] | pKd [12] | pKd [13] | pKd [14] | pKd [15] | pKd [16] | pKd [17] | pKd [18] | pKd [19] | pKd [20] | also measured |
| --- | --- | --- | --- | --- | --- | --- | --- | --- | --- | --- | --- | --- | --- | --- | --- | --- | --- | --- | --- | --- | --- |
| QLSFNTDTLC [ABCA2, Q9BZC7] | below the threshold | below the threshold | below the threshold | below the threshold | 3.59 | below the threshold | below the threshold | below the threshold | below the threshold | below the threshold | below the threshold | below the threshold | 3.61 | below the threshold | below the threshold | below the threshold | below the threshold | below the threshold | 4.16 | below the threshold | pKd [21]: below the threshold; pKd [22]: below the threshold; pKd [23]: below the threshold; pKd [24]: 3.67 |
| EDLEDEWEVI [TECPR2, O15040] | below the threshold | below the threshold | below the threshold | below the threshold | 3.68 | below the threshold | 3.56 | below the threshold | 3.76 | below the threshold | below the threshold | below the threshold | below the threshold | below the threshold | below the threshold | below the threshold | below the threshold | below the threshold | 3.68 | 4.33 | pKd [21]: below the threshold; pKd [22]: below the threshold; pKd [23]: below the threshold; pKd [24]: 4.3 |
